Read-outs that look alike come from different tables or passages of the source. code X = not defined here; code Z = not defined here
Columns and labels:
IgG3 = IgG3 (Homo sapiens, UniProt P01860); assay type: binding; design: all human subtypes derived from myeloma patients; purchased Calbiochem 400124; host or cells: myeloma patients; details: for Batch Binding (% Capture of Total Load) hIgG3: Table 18, average ligand density 1.9 μmole/ml
Description: (§1) In addition, the following targets, all unfractionated IgGs, were also evaluated with selected immobilized peptides for species specificity characterization in a similar format: human IgG, goat IgG, bovine IgG, and mouse IgG (Sigma, product nos. I4506, I5256, I5506, and I15381, respectively). In addition, 10 μl aliquots of hydrolyzed NHS-activated Sepharose 4 Fast Flow (Amersham Pharmacia Biotech, product no. 17-0906-01) and immobilized recombinant Protein A (RepliGen Corp., product no. IPA-400) were also assayed as negative and positive controls. IgG targets were diluted into 10 mM phosphate buffer containing 150 mM NaCl and 0.01% Tween 20, pH 7.2 (PBST) or 50 mM Tris buffer containing, 150 mM NaCl and 0.01% Tween-20, pH 7.5 (TBST). Batch (static) binding and elution studies were conducted in a 96-well assay filterplate (Millipore MultiScreen-HV, with 0.45 μm Durapore membrane, product no. MAHVN4510). The target was allowed to incubate with the resin for 1-1.5 hours with shaking at room temperature. Unbound target was collected by centrifugation of samples from the assay plate directly into a low-UV absorbing 96-well collection plate (Costar, product no. 3635 or Greiner, product no. 655801). The unbound target was then quantitated by reading the absorbance at 280 nm (normalized to 1 cm pathlength, 1.4 mg/ml A280 extinction coefficient) of the collection plate on a microplate spectrophotometer (Molecular Devices Corp., SPECTRAmax PLUS) against a buffer blank.
(§2) The percentage bound target was determined by subtracting the mass determined as unbound from the corresponding condition's control values (control non-filtered added directly to the collection plate and/or the negative control). The assay plate was washed (3×) with 200 μl of binding buffer by vacuum filtration followed by addition of 100 μl of various elution conditions (e.g.: 0.1 M sodium bicarbonate buffer, pH 8.5 and/or 0.1 M sodium citrate buffer, pH 4.0). After a 30-60 minute incubation with shaking at room temperature, the eluted target was collected by centrifugation of the assay plate into another collection plate and quantitated in a similar manner. Percent elution of total load was then determined to characterize elution recovery efficiency under various conditions. The assay plate was then washed (3×) with 200 μl of binding buffer by vacuum filtration followed by addition of a resin cleaning condition (e.g., 0.1M CAPS buffer (3-[Cyclohexylamino]-1-propane-sulfonic acid), pH 11.5, to regenerate the resin for re-use. Percentage mass balance determination was calculated to be 90-100% on average.

human IgG [1] = assay type: binding; details: for Batch Binding (% Capture of Total Load) hIgG: Table 18, average ligand density 1.9 μmole/ml
Description: as §1, §2

goat IgG = assay type: binding
Description: as §1, §2

bovine IgG = assay type: binding
Description: as §1, §2

human IgG2 = molecular target: T1, human IgG2 (Homo sapiens, UniProt P01859); assay type: binding; details: for Batch Binding (% Capture of Total Load) hIgG2: Table 18, average ligand density 1.9 μmole/ml
T1 construct: all human subtypes derived from myeloma patients; purchased Calbiochem 400122; host or cells: myeloma patients
T1 sequence (P01859 1-326 isoform P01859-1): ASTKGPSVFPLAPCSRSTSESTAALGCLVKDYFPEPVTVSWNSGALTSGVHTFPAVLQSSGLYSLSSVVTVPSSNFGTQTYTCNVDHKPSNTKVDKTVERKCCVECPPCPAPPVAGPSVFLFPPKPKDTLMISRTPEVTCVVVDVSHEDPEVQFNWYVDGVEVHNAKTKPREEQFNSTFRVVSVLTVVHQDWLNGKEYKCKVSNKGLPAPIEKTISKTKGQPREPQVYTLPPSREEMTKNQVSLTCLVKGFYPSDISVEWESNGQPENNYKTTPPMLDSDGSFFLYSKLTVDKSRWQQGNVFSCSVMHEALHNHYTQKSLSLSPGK
Description: as §1, §2

mouse IgG = assay type: binding
Description: as §1, §2

human IgG1 = molecular target: T2, human IgG1 (Homo sapiens, UniProt P01857); assay type: binding; details: for Batch Binding (% Capture of Total Load) hIgG1: Table 18, average ligand density 1.9 μmole/ml
T2 construct: all human subtypes derived from myeloma patients; purchased Calbiochem 400120; host or cells: myeloma patients
T2 sequence (P01857 1-330 isoform P01857-1): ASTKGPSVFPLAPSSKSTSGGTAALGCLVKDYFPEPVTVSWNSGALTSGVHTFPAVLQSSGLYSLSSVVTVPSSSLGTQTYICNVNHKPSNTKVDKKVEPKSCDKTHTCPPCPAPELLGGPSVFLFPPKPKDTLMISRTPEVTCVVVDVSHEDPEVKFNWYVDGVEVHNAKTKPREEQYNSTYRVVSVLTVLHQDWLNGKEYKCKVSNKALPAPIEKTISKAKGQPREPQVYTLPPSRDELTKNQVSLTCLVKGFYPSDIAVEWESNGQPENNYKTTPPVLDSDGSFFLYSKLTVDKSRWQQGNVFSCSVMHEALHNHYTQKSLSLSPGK
Description: as §1, §2

IgG4 = IgG4 (Homo sapiens, UniProt P01861); assay type: binding; design: all human subtypes derived from myeloma patients; purchased Calbiochem 400126; host or cells: myeloma patients; details: for Batch Binding (% Capture of Total Load) hIgG4: Table 18, average ligand density 1.9 μmole/ml
Chain of IgG4 (P01861 1-327 isoform P01861-1): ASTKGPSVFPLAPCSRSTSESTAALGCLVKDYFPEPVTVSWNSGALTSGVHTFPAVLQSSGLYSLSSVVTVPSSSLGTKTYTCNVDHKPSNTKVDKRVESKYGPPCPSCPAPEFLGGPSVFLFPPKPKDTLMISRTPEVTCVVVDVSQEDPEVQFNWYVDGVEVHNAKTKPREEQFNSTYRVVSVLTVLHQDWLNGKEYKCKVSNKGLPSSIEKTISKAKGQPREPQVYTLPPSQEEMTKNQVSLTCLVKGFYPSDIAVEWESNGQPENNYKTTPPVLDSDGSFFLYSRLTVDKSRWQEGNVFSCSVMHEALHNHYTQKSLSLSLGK
Description: as §1, §2

human IgG [2] = assay: Static (filterplate) binding capacity; details: 25 mg human IgG applied per ml resin
Description: These media were used to determine the effect of ligand density on human IgG binding capacity in both static (filterplate) and dynamic (mini-column) modes with commercial immobilized recombinant Protein A (Repligen, IPA400) at a single density as control. Actual ligand densities obtained ranged from 0.17 to 3.2 μmole/ml media as confirmed by quantitative amino acid analysis.
After incubation of the samples, with shaking, at room temperature for one hour, the supernatant liquid from each well, containing unbound IgG, was collected by centrifugation into the cognate well of a collection plate. The assay plate was washed three times with PBST (200 μl/wash) and bound IgG was eluted from the media samples by incubation for 30-60 minutes at room temperature in 100 μl Elution Buffer (100 mM CAPS, pH 11.5). Eluates were collected by centrifugation for analysis. Protein concentrations were determined from A280 measurements and plotted as a function of mg human IgG bound per ml resin vs. mg human IgG applied per ml resin.
The amount of IgG captured (estimated from IgG recovered in the elution step) by the various media is dependent upon both the IgG concentration and the ligand density. […] Under these static conditions, where both ligand and target concentrations are close to KD values, equilibrium binding is established and total capacities cannot be accurately determined. However, over the IgG range of 0 to 25 mg IgG applied per ml resin (0 to 2.5 mg/ml target added to 10 μl of resin), capture of IgG is linear. Beyond this point, up to a level of 200 mg IgG applied per ml resin, saturation becomes more pronounced.

human IgG [3] = assay: Dynamic (mini-column) binding capacity; details: Table 18; total dynamic capacity; average ligand density 1.9 μmole/ml
Description: These media were used to determine the effect of ligand density on human IgG binding capacity in both static (filterplate) and dynamic (mini-column) modes with commercial immobilized recombinant Protein A (Repligen, IPA400) at a single density as control.
The IgG solution was loaded onto the column at a flow rate of 0.2 ml/minute (170 cm/hr). […] At the end of the loading period, the column was washed with PBS until the absorbance at 280 nm of the column eluant returned to baseline. […] Neutralizing the pH of the eluted fractions was unnecessary since the total IgG eluted was determined by total protein absorbance at 280 nm.
To establish total media capacities, IgG was loaded onto the columns until the absorbances of the column load and flow through streams were identical (loading to full capacity). After washing the column to baseline, bound IgG was eluted and the total amount captured from this elution fraction determined. The total capacity of the media (mg IgG/ml media) as total IgG captured divided by the column bed volume was calculated.
Additionally, column capacities at 10% breakthrough were calculated from the online A280 measurements of column flowthrough streams. The A280 curves obtained for the column of interest and for an equivalent “blank” column containing hydrolyzed Sepharose FF 4 media were aligned. The difference in areas between these curves (for a retained and non-retained target) from the time of injection to the time at which the A280 value for the column of interest had risen to 10% of the maximum A280 absorbance (100%) obtained for the load solution at 100% IgG capture saturation (10% breakthrough) was graphically integrated. A standard curve was used to relate the integrated area to mg IgG bound and capacity calculated as total IgG bound divided by column bed volume.

[4] = Table 13, average ligand density 1.8 μM/ml
[5] = Table 14, average ligand density 1.8 μM/ml
[6] = Table 9, immobilized peptide, 5.0 mg/ml resin load

Chain of IgG3 (P01860 1-377 isoform P01860-1): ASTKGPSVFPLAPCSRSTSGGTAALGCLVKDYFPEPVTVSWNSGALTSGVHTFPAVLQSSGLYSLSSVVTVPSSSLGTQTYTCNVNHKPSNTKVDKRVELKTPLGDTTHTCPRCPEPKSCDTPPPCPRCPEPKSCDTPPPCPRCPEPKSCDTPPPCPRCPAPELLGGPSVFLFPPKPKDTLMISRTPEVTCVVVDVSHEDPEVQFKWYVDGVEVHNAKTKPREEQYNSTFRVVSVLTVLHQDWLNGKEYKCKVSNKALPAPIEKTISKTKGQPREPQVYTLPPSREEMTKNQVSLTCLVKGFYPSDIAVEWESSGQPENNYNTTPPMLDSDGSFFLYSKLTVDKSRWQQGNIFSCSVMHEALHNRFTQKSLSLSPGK

## Ac-GDNPMCWKKSWWEDAYCINHGTPGPEGGGK-NH2 (not fully specified (bridges); printed as Ac-GDNPMCWKKSWWEDAYCINHGTPGPEGGGK-NH2; cysteine pairing not given here) [DX596]
IgG3; Table 13
  hIgG3 elution pH 2.5 (% of Total Load): 0%
  hIgG3 elution pH 3.5 (% of Total Load): 0%
  hIgG3 elution pH 4.5 (% of Total Load): 0%
  hIgG3 elution pH 5.5 (% of Total Load): 0%
  hIgG3 elution pH 9.0 (% of Total Load): 0%
  hIgG3 elution pH 9.5 (% of Total Load): 0%
IgG3; [4]
  hIgG3 Bound (% of Total Load): 0%
Human IgG [1]; [5]
  % IgG Capture - Batch Binding, Human IgG: 72%
Goat IgG; [5]
  % IgG Capture - Batch Binding, Goat IgG: 8%
Bovine IgG; [5]
  % IgG Capture - Batch Binding, Bovine IgG: 5%
Human IgG2; Table 13
  hIgG2 elution pH 2.5 (% of Total Load): 71%
  hIgG2 elution pH 3.5 (% of Total Load): 92%
  hIgG2 elution pH 4.5 (% of Total Load): 44%
  hIgG2 elution pH 5.5 (% of Total Load): 3%
  hIgG2 elution pH 9.0 (% of Total Load): 58%
  hIgG2 elution pH 9.5 (% of Total Load): 64%
Human IgG2; [4]
  hIgG2 Bound (% of Total Load): 81%
Mouse IgG; [5]
  % IgG Capture - Batch Binding, Mouse IgG: 5%
Human IgG1; Table 13
  hIgG1 elution pH 2.5 (% of Total Load): 66%
  hIgG1 elution pH 3.5 (% of Total Load): 78%
  hIgG1 elution pH 4.5 (% of Total Load): 61%
  hIgG1 elution pH 5.5 (% of Total Load): 3%
  hIgG1 elution pH 9.0 (% of Total Load): 62%
  hIgG1 elution pH 9.5 (% of Total Load): 58%
Human IgG1; [4]
  hIgG1 Bound (% of Total Load): 87%
IgG4; Table 13
  hIgG4 elution pH 2.5 (% of Total Load): 44%
  hIgG4 elution pH 3.5 (% of Total Load): 61%
  hIgG4 elution pH 4.5 (% of Total Load): 17%
  hIgG4 elution pH 5.5 (% of Total Load): 2%
  hIgG4 elution pH 9.0 (% of Total Load): 55%
  hIgG4 elution pH 9.5 (% of Total Load): 67%
IgG4; [4]
  hIgG4 Bound (% of Total Load): 65%

## Ac-GDDHMCVYTTWGELIWCDNHEPGPEG-X-NH2 (Ac-GDDHMCVYTTWGELIWCDNHEPGPEG-{code X-NH2}; not fully specified (bridges); printed as Ac-GDDHMCVYTTWGELIWCDNHEPGPEG-X-NH2; cysteine pairing not given here; reading uncertain) [DX877]
Human IgG [2]; Table 18, average ligand density 1.9 μmole/ml
  Static Cap.: 20 mg/mL
Human IgG [1]
  Batch Binding (% Capture of Total Load) hIgG: 61%
Human IgG [3]
  Dynamic Cap.: 8 mg/mL

## Ac-GDDHMCVYTTWGELIWCDNH-X-Z-X-NH2 (Ac-GDDHMCVYTTWGELIWCDNH-{code X-code Z-code X-NH2}; not fully specified (bridges); printed as Ac-GDDHMCVYTTWGELIWCDNH-X-Z-X-NH2; cysteine pairing not given here; reading uncertain) [DX911]
IgG3
  Batch Binding (% Capture of Total Load) hIgG3: 6%
Human IgG [2]
  Decrease in apparent relative static capacity compared to DX249, DX877 and DX878: ~2 fold
Human IgG [1]
  Batch Binding (% Capture of Total Load) hIgG: 43%
Human IgG2
  Batch Binding (% Capture of Total Load) hIgG2: 46%
Human IgG1
  Batch Binding (% Capture of Total Load) hIgG1: 58%
IgG4
  Batch Binding (% Capture of Total Load) hIgG4: 25%

## Ac-GDNPMCWRAHWWEDAYCINHEPGPEGGGK-NH2 (not fully specified (bridges); printed as Ac-GDNPMCWRAHWWEDAYCINHEPGPEGGGK-NH2; cysteine pairing not given here) [DX1072]
Human IgG [1]; [5]
  % IgG Capture - Batch Binding, Human IgG: 49%
Goat IgG; [5]
  % IgG Capture - Batch Binding, Goat IgG: 4%
Human IgG1; Table 13
  hIgG1 elution pH 3.0 (% of Total Load): 27%
IgG4; Table 13
  hIgG4 elution pH 3.0 (% of Total Load): 11%

## Ac-GDNPMCWRASWWEDAYCINHEPGPEGGGK-NH2 (not fully specified (bridges); printed as Ac-GDNPMCWRASWWEDAYCINHEPGPEGGGK-NH2; cysteine pairing not given here) [DX1071]
Human IgG [1]; [5]
  % IgG Capture - Batch Binding, Human IgG: 45%
Goat IgG; [5]
  % IgG Capture - Batch Binding, Goat IgG: 3%
Mouse IgG; [5]
  % IgG Capture - Batch Binding, Mouse IgG: 8%
Human IgG1; Table 13
  hIgG1 elution pH 3.0 (% of Total Load): 4%
IgG4; Table 13
  hIgG4 elution pH 3.0 (% of Total Load): 5%

## Ac-GDDHMCVYTTWGELIWCDNH-X-NH2 (Ac-GDDHMCVYTTWGELIWCDNH-{code X-NH2}; not fully specified (bridges); printed as Ac-GDDHMCVYTTWGELIWCDNH-X-NH2; cysteine pairing not given here; reading uncertain) [DX907]
IgG3
  Batch Binding (% Capture of Total Load) hIgG3: 7%
Human IgG [2]
  Decrease in apparent relative static capacity compared to DX249, DX877 and DX878: ~2 fold
Human IgG [1]
  Batch Binding (% Capture of Total Load) hIgG: 49%
Human IgG2
  Batch Binding (% Capture of Total Load) hIgG2: 54%
Human IgG1
  Batch Binding (% Capture of Total Load) hIgG1: 65%
IgG4
  Batch Binding (% Capture of Total Load) hIgG4: 35%
Human IgG [3]
  Dynamic Cap.: 5 mg/mL

## Ac-AGPVDCKHHFWWCYWNGTPGPEGGGK-NH2 (not fully specified (bridges); printed as Ac-AGPVDCKHHFWWCYWNGTPGPEGGGK-NH2; cysteine pairing not given here) [DX251]
IgG3; [6]
  % IgG Capture - Batch Binding, Human IgG3: 5%
Human IgG [1]; Table 11, unfractionated IgG
  % IgG Capture - Batch Binding, Human IgG: 4%
Goat IgG; Table 11, unfractionated IgG
  % IgG Capture - Batch Binding, Goat IgG: 0%
Bovine IgG; Table 11, unfractionated IgG
  % IgG Capture - Batch Binding, Bovine IgG: 0%
Human IgG2; [6]
  % IgG Capture - Batch Binding, Human IgG2: 14%
Mouse IgG; Table 11, unfractionated IgG
  % IgG Capture - Batch Binding, Mouse IgG: 4%
Human IgG1; [6]
  % IgG Capture - Batch Binding, Human IgG1: 6%
IgG4; [6]
  % IgG Capture - Batch Binding, Human IgG4: 1%
